Tested on: Escherichia coli TOP10
Assay: shrunken log2 fold change of peptide-encoding DNA abundance (4.5 h post-induction vs induction); higher = less antimicrobial activity (less host growth inhibition)
Settings: time post-induction: 4.5 h; library: site-saturation at positions 5, 18, 19, 20
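Further: peptides expressed intracellularly from a pBAD plasmid library in pooled LB shake-flask culture, induced with 0.3% L-arabinose, DNA abundance read by NGS, three biological replicates, DESeq2 with apeglm shrinkage.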

| Sequence | shrunken log2 fold change |
| --- | --- |
| RRIRVRPPRLPRPRPRPRAGPRP | 0.488 |
| RRIRVRPPRLPRPRPRPRAQPRP | 0.126 |
| RRIRVRPPRLPRPRPRPRCHPRP | 0.115 |
| RRIRVRPPRLPRPRPRPRDSPRP | -0.188 |
| RRIRVRPPRLPRPRPRPRDWPRP | 0.274 |
| RRIRVRPPRLPRPRPRPREFPRP | 0.126 |
| RRIRVRPPRLPRPRPRPREGPRP | 0.307 |
| RRIRVRPPRLPRPRPRPREIPRP | 0.087 |
| RRIRVRPPRLPRPRPRPREMPRP | 0.0631 |
| RRIRVRPPRLPRPRPRPRESPRP | 0.259 |
| RRIRVRPPRLPRPRPRPRFPPRP | 0.285 |
| RRIRVRPPRLPRPRPRPRGMPRP | 0.274 |
| RRIRVRPPRLPRPRPRPRGWPRP | 0.666 |
| RRIRVRPPRLPRPRPRPRIFPRP | 0.137 |
| RRIRVRPPRLPRPRPRPRIGPRP | 0.131 |
| RRIRVRPPRLPRPRPRPRKDPRP | 0.0324 |
| RRIRVRPPRLPRPRPRPRKHPRP | 0.112 |
| RRIRVRPPRLPRPRPRPRLAPRP | 0.684 |
| RRIRVRPPRLPRPRPRPRLHPRP | 0.0296 |
| RRIRVRPPRLPRPRPRPRQVPRP | 0.0645 |
| RRIRVRPPRLPRPRPRPRSLPRP | -0.116 |
| RRIRVRPPRLPRPRPRPRSWPRP | 0.325 |

| Sequence | shrunken log2 fold change |
| --- | --- |
| RRIRVRPPRLPRPRPRPRVAPRP | 0.381 |
| RRIRVRPPRLPRPRPRPRWTPRP | -0.142 |
| RRIRVRPPRLPRPRPRPSAQPRP | 0.0391 |
| RRIRVRPPRLPRPRPRPSCFPRP | -0.264 |
| RRIRVRPPRLPRPRPRPSCRPRP | -0.0227 |
| RRIRVRPPRLPRPRPRPSDAPRP | -0.203 |
| RRIRVRPPRLPRPRPRPSEHPRP | -0.779 |
| RRIRVRPPRLPRPRPRPSFAPRP | 0.0593 |
| RRIRVRPPRLPRPRPRPSGGPRP | 0.104 |
| RRIRVRPPRLPRPRPRPSHHPRP | -0.448 |
| RRIRVRPPRLPRPRPRPSHPPRP | -0.852 |
| RRIRVRPPRLPRPRPRPSHQPRP | 0.0669 |
| RRIRVRPPRLPRPRPRPSIPPRP | -0.52 |
| RRIRVRPPRLPRPRPRPSIRPRP | -0.285 |
| RRIRVRPPRLPRPRPRPSKNPRP | -0.364 |
| RRIRVRPPRLPRPRPRPSKVPRP | -0.693 |
| RRIRVRPPRLPRPRPRPSLEPRP | 0.163 |
| RRIRVRPPRLPRPRPRPSLIPRP | -0.238 |
| RRIRVRPPRLPRPRPRPSLMPRP | -0.368 |
| RRIRVRPPRLPRPRPRPSNFPRP | -0.476 |
| RRIRVRPPRLPRPRPRPSPIPRP | -0.324 |
| RRIRVRPPRLPRPRPRPSQTPRP | 0.112 |

| Sequence | shrunken log2 fold change |
| --- | --- |
| RRIRVRPPRLPRPRPRPSQYPRP | -0.389 |
| RRIRVRPPRLPRPRPRPSREPRP | 0.0823 |
| RRIRVRPPRLPRPRPRPSRHPRP | -0.0783 |
| RRIRVRPPRLPRPRPRPSRKPRP | 0.00977 |
| RRIRVRPPRLPRPRPRPSSMPRP | -0.157 |
| RRIRVRPPRLPRPRPRPSSNPRP | -0.375 |
| RRIRVRPPRLPRPRPRPSSPPRP | -0.269 |
| RRIRVRPPRLPRPRPRPSTNPRP | -0.146 |
| RRIRVRPPRLPRPRPRPSVAPRP | 0.595 |
| RRIRVRPPRLPRPRPRPSWKPRP | -0.0781 |
| RRIRVRPPRLPRPRPRPSYIPRP | -0.74 |
| RRIRVRPPRLPRPRPRPTAMPRP | 0.0686 |
| RRIRVRPPRLPRPRPRPTCNPRP | -0.233 |
| RRIRVRPPRLPRPRPRPTEYPRP | 0.0465 |
| RRIRVRPPRLPRPRPRPTFDPRP | -0.0428 |
| RRIRVRPPRLPRPRPRPTFNPRP | 0.127 |
| RRIRVRPPRLPRPRPRPTHMPRP | 0.0408 |
| RRIRVRPPRLPRPRPRPTIYPRP | -0.498 |
| RRIRVRPPRLPRPRPRPTLLPRP | -0.196 |
| RRIRVRPPRLPRPRPRPTNQPRP | 0.0229 |
| RRIRVRPPRLPRPRPRPTNYPRP | -0.519 |
| RRIRVRPPRLPRPRPRPTPGPRP | 0.258 |

| Sequence | shrunken log2 fold change |
| --- | --- |
| RRIRVRPPRLPRPRPRPTPLPRP | 0.251 |
| RRIRVRPPRLPRPRPRPTPPPRP | 0.406 |
| RRIRVRPPRLPRPRPRPTPWPRP | 0.294 |
| RRIRVRPPRLPRPRPRPTQCPRP | -0.0227 |
| RRIRVRPPRLPRPRPRPTQNPRP | 0.693 |
| RRIRVRPPRLPRPRPRPTSIPRP | -0.201 |
| RRIRVRPPRLPRPRPRPTVDPRP | 0.177 |
| RRIRVRPPRLPRPRPRPTWFPRP | 0.177 |
| RRIRVRPPRLPRPRPRPTWNPRP | 0.13 |
| RRIRVRPPRLPRPRPRPVDFPRP | -0.289 |
| RRIRVRPPRLPRPRPRPVDLPRP | 0.0988 |
| RRIRVRPPRLPRPRPRPVENPRP | 0.02 |
| RRIRVRPPRLPRPRPRPVHLPRP | 0.0586 |
| RRIRVRPPRLPRPRPRPVHRPRP | 0.164 |
| RRIRVRPPRLPRPRPRPVILPRP | -0.248 |
| RRIRVRPPRLPRPRPRPVMAPRP | 0.0266 |
| RRIRVRPPRLPRPRPRPVMNPRP | -0.19 |
| RRIRVRPPRLPRPRPRPVNPPRP | -0.464 |
| RRIRVRPPRLPRPRPRPVPDPRP | -0.103 |
| RRIRVRPPRLPRPRPRPVPWPRP | 0.0916 |
| RRIRVRPPRLPRPRPRPVQFPRP | -0.488 |
| RRIRVRPPRLPRPRPRPVQWPRP | -0.0327 |

| Sequence | shrunken log2 fold change |
| --- | --- |
| RRIRVRPPRLPRPRPRPVRCPRP | 0.145 |
| RRIRVRPPRLPRPRPRPVRLPRP | 0.44 |
| RRIRVRPPRLPRPRPRPVSVPRP | 0.0195 |
| RRIRVRPPRLPRPRPRPVTYPRP | -0.288 |
| RRIRVRPPRLPRPRPRPVVYPRP | 0.0805 |
| RRIRVRPPRLPRPRPRPVWPPRP | 0.257 |
| RRIRVRPPRLPRPRPRPWACPRP | -0.191 |
| RRIRVRPPRLPRPRPRPWEHPRP | 0.0927 |
| RRIRVRPPRLPRPRPRPWELPRP | -0.487 |
| RRIRVRPPRLPRPRPRPWESPRP | 0.0528 |
| RRIRVRPPRLPRPRPRPWFFPRP | -0.148 |
| RRIRVRPPRLPRPRPRPWFGPRP | 0.0293 |
| RRIRVRPPRLPRPRPRPWFVPRP | -0.475 |
| RRIRVRPPRLPRPRPRPWGKPRP | -0.0952 |
| RRIRVRPPRLPRPRPRPWGSPRP | -0.137 |
| RRIRVRPPRLPRPRPRPWIFPRP | -0.389 |
| RRIRVRPPRLPRPRPRPWIPPRP | -0.513 |
| RRIRVRPPRLPRPRPRPWISPRP | -0.0628 |
| RRIRVRPPRLPRPRPRPWLVPRP | 0.128 |
| RRIRVRPPRLPRPRPRPWNHPRP | -0.152 |
| RRIRVRPPRLPRPRPRPWPDPRP | 0.033 |
